Protease stability score data for 47 sequences are collected here from the NTF2 design screens of Basanta et al. (2020).

This data set in a line: protease stability score; higher = more stable; yeast display proteolysis, trypsin and chymotrypsin.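 Note: log10 excess protease needed over predicted unfolded state with 0 meaning unfolded.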

For “DEDIRRHVKEFIEALRTGNEDQLRTLADKNVRFEYGDKEIHGRETYAKHVKKLKEESSIEIKDYKVTAQGNTVSAKIRQVVNHNGKPQHHVVILQAVFHNGKLKEMRTKDDG”, the protease stability score is -0.26.
The value for “DEDITEAVRRLEKAREDGDPNKVRELLPEDARAQYGDKTYHGRDEVAKYRETEMKQMTVQMNIRSVENHNGRADIEFEVTREHNGKPTHDHNRATILAHNGKIKVIEIHSTK” was -0.422; that for “DEDKAKEFMRKALHILLEGDPDKFVRMADKDAHIQVGEHTVHGREQVRKFIQELQDKVDHNDVVDYEVRPNHANIEFQMNVNGRTVRMRVRLEFKNGKFKRATFDPDDVRKLHT” was 1.33.
The figure for “DEDKARRLAEKLFEYMMKGKKDEAKKFLDPDVRYEYVDETVEGPKVAEHVVRKIRKLGMKVETKEMEIRGDKARAVFVYRNGDNQVETTVEAQYEGDKLKEVRVELTDEVKKQVTQG” is 0.804; for “DEDKARRVMEKLFKIVKNGNKDEMKKMGKPNVQYTYVDKRYEGEEAAKKDVEIDKEVGARVQERELEVKGDTVKAVFQYQQGDTTVQTHVEAHYEGDKVKEVKVELTEEVQKIVEQG” it is -0.248; for “DEDKEAEKLVKEMQENQRQGDEEKWANLFDEDAHFRIGDKHLHGRQDLQDNVRKWRHNYDHLSVRMKDLKHDGDKARLHVVITQRHNGKNDSMTVDIVIVKQNGRVRIKNFQAP” it is 0.513.
“DEDKEAKKAIDDWKKIIDTNDEDQARRMFDPNAKVTIGDKTYHGREQASTLFHQLMKRFDHMSFHVDKVRVHNGQVDAVVTARFNHNGRTEEMRLRFRFDDHNGQLVIVQIDWE” registered a protease stability score of 1.35.
“DEDKEAREIAKKIARDLNRGNQEEVVKQFDPNVRLNIGDKEVTGREEVRKEVKKVQQKFDHADIRIRDYRSEGDSANLDFYLTLTHNGRHDKRRWTLHLENHNGRYIVKHVQHN” registered a protease stability score of 0.028.
As to “DEDKEDRVRTWVEAQKTGDPDKAKENADPNVRVEYGDKTIHGMSEIVKHIKREKHESRRTIDSYSVSASGDHITVRIDMHVKHDGQPRRKDYTETIVIRNGKIRHIKRRDDK”, the protease stability score turned out to be 0.36.
The sequence “DEDKEDRVVKTFLTAVRTGDPHTARNMLDENARVHIGEKNFHGKERASEAIKEFRDQVDEVHIRTIKVRGDRFNIDMTLHFNGKNADLTVNVRVHNGKIQDVQFDPDQMQHLQG” showed a protease stability score of 0.86.
The figure for “DEDKEIRKFIKNNKDILKNGDPREYVRQMDPNAKMQYGDKQVRGNDQLERHLHTKLKRIDSQSVDFKDVDLKGDKIRLRARRTYQFNGRTSSEEFVVVMTFTNGQARVHKINYK” is 0.103.
The figure for “DEDKEKKINKDIADAWQNGDEQQMQKQIPPEVRIQVGDKTVHGREHIHKWMRRWRERVDHLQLKDMTAHNGNMRIKFVIRHNGRQDVRQVHIQVDNGTVHTASFDTE” is 0.43; for “DEDKEQELAHHIISIIQTGNPDSFMNMADPNAKVNIGDTRLRGREQIVHFYREQFRQADNREVKDVRAHNGRITIDAVRNINGRNERYVVDIQIENGKATEINVRHT” it is 0.045.
The value for “DEDKHAHELAKKLQKVWEEGAEEKQQELVDEDDRKNIGEHTYNGEEQLRRDLDKLRKDADHVDMKLKQIRFQGDKARIDMVVSQTVNGKRNTDRFTVEARLNNGRLRIKQVTKN” was 0.813; that for “DEDKHAKRVMENLTRAMNQGDKRRAADMVDPNVRLVIGDKEYHGRHQFRRAIKELVDRADHIEIDVRDVKTKNGRVQAHAHVEATYNGKKNDFKMVAEVEVQGENVVVHQITLK” was 1.13; that for “DEDKHAQDHMDQLTRLRKHGNFEKLANMADEDVEVHYGDKQVHGREQVVKTIKSEADDVDHFDVKVQEYHVQGDHIHVVNEFTLERNGQYRTDEQQFTVQITNGSIRIKNMTKK” was -0.475.
As to “DEDKHVHRAFEEMLTVMEKGNEDEVKRLVDKDVRVHIGDKSYRGRTNVAKQIVDWARRADHIEIEVTEIDIQGDQVTMRATAHATHNGKTQSYDFTIILRIENGRAVIHSWHVS”, the protease stability score was determined as 0.923.
For the sequence “DEDKKADEFMKRWIDNLQNGNEDELRKLIDPNARLDIGDKTLHGREDIVHHLSETLKRVDHLEIRVEHIEVQGDKATFVYHITMRTNGRTHSSEVQFEAEEHNGNLIIKSIHER”, the protease stability score is 1.57.
In the case of “DEDKKKHDLIHTFLTLQHNGDFKQLARMFDPNAKVRVGDKDIRGREQIEKMFEKVRESVDRVSVSLTHMDNHGDKVRMEARVTQHVNGRNHDFTITITFRQVGDKVRASHQSVS”, the protease stability score was found to be 0.584.
For “DEDKLDHLARKAAEIMVQGDPDKFRDMFDPNAKLRYGDKELRGREEADKAIEEMQKRVDSSDVEDITAHNGRANAVLVLNHNGRHKRFVLVVDVRNGRATKASMHDD”, the protease stability score is -0.062.
“DEDKLKSMFRQLQRVLTQGNPHDARKLFDEDAHLVVGDKRWTGREEVVKFIEELTRRYDHLEIKSFSVSNGRMVVNASAHVNGKSIDIHYIMEVDNGRVKYLRVDVRNEEELKKVLS” registered a protease stability score of 1.27.
“DEDKLRDVAKRLQEIIHTNNPDDLNKQADKDARVQVGDKEYKGRRDVYKFMETLKHQVDQIEIHDVKFDGDHAHFHVMMNVNGKKVEVHIIMEVENGKVKELNFDPKNMEQLDK” showed a protease stability score of 0.708.
The value for “DEDKLREVAEEMNKGDPQTLADNADKDARLRVGDREWHGREDVEKFNNQWRREVDHVDIERVTVSPNRVEAVYVVTVNGKRIHAKFEAKVHDGRIKEMTVSVTNPEQQKDLERQVD” was -0.1.
The value for “DEDKLTDKAHQIIRALETGDPDQIRNLAPPNVRFDYGDKRYHGREKAEERAKRERENIDHMEIKDFDVQGNKIQIRAVVEHNGRSREFVVTFEQNNGTLRFARMQSK” was -0.342; that for “DEDKLTRVEDFLRLQEQNNEDELLKQMDPNATQRYGNKHVHGSSEVKRFLHRLHREMRIRVEMKSVEVHGDEVVMKADFSKTFNGRPETLTATVVFKVHNGRIQKIIFEERK” was 1.41; that for “DEDKMKEIAKKFMDYLVNGHADEVRKMGKEGVRVHVGDTTIQGPDQLKEYVKKFKDQGVHNEYKEEEVKGDTITMHTKAQLGNAEVDFEVHYVVKGDKVEKFEVKTDKKQQEKFKKS” was -0.352.
The figure for “DEDKMKEVIEKVLRMLETGDPHEASKLADENAKIRYGDKTYHGRDQVHELLDRITKRVDHVEIKDFSVQGEQLVLHFVLNINGKNKEVVLVATVHNGRIKSLHVDDQ” is 1.26; for “DEDKMKSILTVAQEGDPDEMKRQADEDARVHIGDKRVHGRESFQKAMDEYTKAVDSQHVKRVSSRENRVKVTAVLRFNGSHIDVVVQIRAHNGRIEEIIFRVTDPKQKTTLKKIIS” it is 0.053; for “DEDKMLKIAQEMAEAVVNGNVEQMKKQAHEGVQVHVGDEEVHGPDQLEEYVKKFKDQGVEVHYKETEHKGDTVTLKTTAVLGDAQVEFEAHYVVKGDKLQRFEVKLNKEQLKDFRKS” it is 0.242.
For “DEDKMLKVAKEAVEAITKGNAEQIKKVGKEGVQVTFGDEKYHGPDQLEEYVKKVKDQGNHIEYKEQEFKGDTATVKTEAEKGDQKVTFEVHYQVKGNKLDRLEVRFDKEQQKKFEQS”, the protease stability score is -0.256.
The figure for “DEDKNKEAVERFLHNLENGDWQSLADLADKNAKVQIGDETVSGRESAQNELRKFAERVDHVDYHDMTVQGDKFEVVFQEDHNGRKRKVVAEFRVKNGRFKHVVFDDG” is -0.008; for “DEDKNKKFADKVVRALEQNNEEEMNELFPPDARVEVGDKQIHGREEIQKYMQKIRDQVDHVEVKSMEVDGDKITVHVTVHHNGTSRTVVFIFHVRNGRLTEMKVKTG” it is 0.04; for “DEDKNKKRAEEWQRILEDNDEERFSKLADKDVRFVIGDKEVHGSEQAETWIRTIKHRVDHIQLEDMKVNGNKIVIDLVMVHNGRKHRYKVVMEFHNGSVKYVQYNDS” it is -0.06.
The figure for “DEDKNNRDMQDMIRAVITNDEKRVQELMDPNASVTVGDHTFKGTEAVTHLITDLRNHIDHVELNSVSVHNGKAKADMVFTVNGQHVKIEMNAQAHNGKVTQFDVSARSEEEHKKYKQ” is -0.542; for “DEDKQAKEMMKRFVHMMQEGDPSEAKRLFDKNARLVVGDKRFHGQHEASKFAEEIKKRYDKVHVELKDLKVHGDKVDAKAKVVLNDNGQKDTHEVVITALFHNGRIKVQEVRVQ” it is 0.983.
“DEDKQHEFATRNVKAWETNDENQMRRLMDPNAKVRIGDKEYRGREEILRLLNEFKKRVDHVQVKSYDVHNGHVHINIVASVNGQRHEMHVKFQFHNGEIVKMQIDDS” registered a protease stability score of 0.203.
“DEDKQLHELFERLVEAIRNGDPKKYQDNADENAKIRVGDKEYTGREQLEKLVEDIRKDVDHLEVDFKRVKVEGDKATAIVKVRANFNGKNDDTMYQYQAKIHGDKIHVVNVQQS” gave a protease stability score of 0.165.
“DEDKQRKRAETAAHIVENNNPDEQNKLADKDVTMQVGETQVHGREDLKELMEEMREQFDHIRVRSFDAHGNKVRLRFHAEYNGVTLEFVIINNYHNGKVQSINLRVTNPEEFRKAQG” had a protease stability score of 0.122.
“DEDKQRKTADEIQKVIKQGDEKKAEDLFDENAKLSIGDKFYRGKEDFKRWFRSLRDRIDHFQVKDLEVDGERAEFVVVFHVNGKNVEMVIEIHVHNGKVKHARVNPEDERKLNT”: the protease stability score was found to be 1.05.
For the sequence “DEDKRAREAAETAIQALRTGDPDKMVKLMDPNARVRVGDKTVTGHEEIRRWMQTIQDQIDHADITVESLTVNNGRAELIFVANFDRNGRTERTRYNLEIDVRGDKVQAHQMDHG”, the protease stability score was 1.22.
The value for “DEDKRARKFADTMRKVLEKGNEEEFRDMMDKDVSFKYGDKEVRGREEAAKRLKDTVKRVDRVEVNIKSIHVQGDKVSIDMLIVNDHNGKHHHRRLVFYAKDDNGKLVVVKVTER” was 1.86; that for “DEDKRKLVEDLIEAEERGDNERIKELADKDAEYIYGDKTVEGREEHAKEVKKKHDQQRVKITSMRINAHGDKIQVSIEYTVEDNGQPRRARVHIKFVIHNGRFQSMHIQDHR” was -0.253.
Sequence “DEDKTAEQVAETIQKIWEKGDPTKMEKLFDPNASINVGEKTVKGREKIFTEAKKLMKEADHVRVTVQHVEARGDHVIVRFTFTLHVNGKNRKHEVEINAEDKNGHLRARDIKMR” had a protease stability score of 0.351.
Sequence “DEDKTMRELIRRLDKNLKEGDPSKAREQADKDARANIGEKRVTGRKRLDEEVKTLLDSYDHIRVHLKEVRVENGSAVARVDYHYDQNGQEKSKEVILHARFQGDRLTLEQMTMP” registered a protease stability score of 0.043.
“DEDKVAHDMMKEIQSIFERGDRDTWRRMFDPNAEMHVGDKRIHGREHFSRWAQRSVERVDHHEMHVRSVSVDNGTITVSAVEVENVNGHEDKRRFVVRANLEGDKVQWKRRSEQ” registered a protease stability score of 0.096.
“DEDKVERLKHMWKVVEEGDEDKLREQFDKDASVTVGDKVLTGRENLARHWKRIRDELRFSMTMEKVEVHNGVVDIRVTATEDNNGRPQHKVADVRVDMHNGRIKVLEVDETK” had a protease stability score of 0.154.
The figure for “DEDKVKKIAEELWKAISNGDEERMKKLMRDDVRAQVGDTEVHGREHVVHQLATFAKQVDHLTMETYDIRGNHVTFRFQARVNGKRVQIDMVIHVSNGRIKELRIDPKQVKELES” is 1.22.
